# In publication PMC9038204 (PLoS Biology, 2022):
# B1: isolated FERM domain of human SNX27 (domain or fragment, UniProt Q96L92 269-531, looked up)
# chain: YNGVSDVELRVALPDGTTVTVRVKKNSTTDQVYQAIAAKVGMDSTTVNYFALFEVISHSFVRKLAPNEFPHKLYIQNYTSAVPGTCLTIRKWLFTTEEEILLNDNDLAVTYFFHQAVDDVKKGYIKAEEKSYQLQKLYEQRKMVMYLNMLRTCEGYNEIIFPHCACDSRRKGHVITAISITHFKLHACTEEGQLENQVIAFEWDEMQRWDTDEEGMAFCFEYARGEKKPRWVKIFTPYFNYMHECFERVFCELKWRKENIFQM
# notes: FERM domain of human SNX27; pET-28a, TEV site between His-tag and SNX27; also called hSNX27_(FERM); source: E. coli BL21 (DE3), purified (TALON or Ni-NTA, SEC, Mono Q)
# How the values were obtained:
# Settings in all cases: both partners purified
# [1] = target: T1, full-length human SNX27, wild-type (human, UniProt Q96L92 1-541); experiment: ITC; 600 μM SNX1 75-92 peptide titrated into 20 μM hSNX27 wild-type or single-site mutant; 25°C; 50 mM HEPES pH 7.5, 200 mM NaCl, 5% glycerol, 1 mM β-ME; single-site model
# T1 construct: sorting nexin-27 (SNX27), human; pET-28a, TEV site between His-tag and SNX27; also called hSNX27FL; hSNX27 WT; source: E. coli BL21 (DE3), purified (TALON or Ni-NTA, SEC)
# human SNX27 K496D = target: T2, human SNX27 K496D (human, UniProt Q96L92 1-541, K496D); experiment: as above
# T2 construct: human SNX27 single-site mutant; printed as R496D in the text and as K496D in the legend and the methods; also called hSNX27 K496D; SNX27(R496D); source: E. coli BL21 (DE3), purified (TALON or Ni-NTA, SEC)
# full-length mouse SNX27 [2] = target: T3, full-length mouse SNX27 (mouse, UniProt Q3UHD6 1-539); experiment: ITC; 800 μM SNX1 or SNX2 peptide titrated into 20 μM mSNX27FL; 25°C; 50 mM HEPES pH 7.5, 200 mM NaCl, 5% glycerol, 1 mM β-ME with 1:10 peptide buffer (100 mM Tris-HCl pH 10.6); single-site model
# T3 construct: sorting nexin-27 (SNX27), mouse; also called mSNX27FL
# [3] = target: T4, full-length mouse SNX1 with an amino-terminal His-tag (mouse, UniProt Q9WV80 1-522); experiment: ITC; 800 μM hSNX27 FERM titrated into 20 μM GST-mSNX1(1-139) or His-SNX1FL; 25°C; 50 mM HEPES pH 7.5, 200 mM NaCl, 5% glycerol, 1 mM β-ME; single-site model
# T4 construct: sorting nexin-1 (SNX1), mouse; vector pMW172Kan; also called mSNX1FL; His-SNX1FL; source: E. coli BL21 CodonPlus (DE3), purified (TALON or Ni-NTA, SEC); not shown: His-tag, N-terminal, kept
# [4] = target: B1; experiment: as above
# full-length mouse SNX27 [5] = target: T5, full-length mouse SNX27 (mouse, UniProt Q3UHD6 1-539); experiment: ITC; 800 μM hSNX1 or hSNX2 peptide (syringe) titrated into 20 μM mSNX27FL (cell); 25°C; 50 mM HEPES pH 7.5, 200 mM NaCl, 5% glycerol, 1 mM β-ME with 1:10 peptide buffer (100 mM Tris-HCl pH 10.6); single-site model
# T5 construct: sorting nexin-27 (SNX27), mouse, full length; pMCSG7 vector by ligation-independent cloning; also called mSNX27FL
# [6] = target: T6, full-length human SNX27, wild type (human, UniProt Q96L92 1-541); experiment: ITC; 600 μM hSNX1(75-92) peptide (syringe) titrated into 20 μM hSNX27FL wild type or single-site mutant (cell); 25°C; 50 mM HEPES pH 7.5, 200 mM NaCl, 5% glycerol, 1 mM β-ME; single-site model
# T6 construct: sorting nexin-27 (SNX27), human, full length; also called hSNX27FL; hSNX27 WT
Binder,Kd (full-length mouse SNX27 [2]),Kd (full-length mouse SNX27 [5]),also measured
NGIHEEQDQEPQDLFADA (human SNX1 residues 75 to 92; also called second aDLF motif of human SNX1; source: synthetic peptide (Genscript)) [SNX1_(75-92) peptide],13.3 µM,,Kd [1]: 12.7 µM; Kd (human SNX27 K496D): 56.4 µM
B1,,,Kd [3]: 41 µM
TDFEDLEDGEDLFTSTVS (human SNX2 residues 16 to 33; also called first aDLF motif of SNX2; source: synthetic peptide (Genscript)) [SNX2_(16-33) peptide],37.8 µM,,
"GST-mSNX1(1-139) (domain or fragment, mouse, UniProt Q9WV80 1-139, looked up, mouse SNX1 residues 1 to 139; vector pGEX4T-2, thrombin-cleavable GST; eluted with glutathione and named GST-mSNX1(1-139) in the ITC; also called amino-terminal extension of mouse SNX1; source: E. coli BL21 CodonPlus (DE3), purified (glutathione Sepharose, SEC); not shown: GST, N-terminal, kept) MASGGGGCSASERLPPPFPGMDPESEGAAGASEPEAGDSDTEGEDIFTGAAAATKPQSPKKTTSLFPIKNGSKENGIHEDQDQEPQDLFADATVELSLDSTQNNQKTMPGKTLTSHSPQEATNSPKPQPSYEELEEEEQ",,,Kd [4]: 39.1 µM
"TEVVLDDDREDLFAEATEEVS (sorting nexin-2 (SNX2), human, residues 62 to 82; also called hSNX2 62-82; SNX2_(62-82); source: synthetic peptide (Genscript)) [human SNX2 peptide, residues 62-82 (second aDLF motif)]",,22.6 ± 1.89 µM,
TEVVLDDDREDLFAEATEEVS (human SNX2 residues 62 to 82; also called second aDLF motif of SNX2; source: synthetic peptide (Genscript)) [SNX2_(62-82) peptide],22.6 µM,,
"EAGDSDTEGEDIFTGAA (sorting nexin-1 (SNX1), human, residues 35 to 51; also called hSNX1 35-51; SNX1_(35-51); source: synthetic peptide (Genscript)) [human SNX1 peptide, residues 35-51 (first aDLF motif)]",,33.4 ± 1.89 µM,
"NGIHEEQDQEPQDLFADA (sorting nexin-1 (SNX1), human, residues 75 to 92; also called hSNX1 75-92; SNX1_(75-92); source: synthetic peptide (Genscript)) [human SNX1 peptide, residues 75-92 (second aDLF motif)]",,13.4 ± 0.75 µM,Kd [6]: 12.8 ± 0.47 µM
EAGDSDTEGEDIFTGAA (human SNX1 residues 35 to 51; also called first aDLF motif of human SNX1; source: synthetic peptide (Genscript)) [SNX1_(35-51) peptide],33.4 µM,,
